Source: publication PMC11417362, “Template-independent synthesis and 3′-end labelling of 2′-modified oligonucleotides with terminal deoxynucleotidyl transferases” (Nucleic Acids Research, 2024)

Experiments:
[1] = substrate: Cc1cn([C@H]2C[C@H](O)[C@@H](COP(=O)(O)OP(=O)(O)OP(=O)(O)O)O2)c(=O)[nH]c1=O; assay: steady-state primer extension, denaturing PAGE, Michaelis-Menten fit; assay type: biochemical, Mus musculus; settings: 100 nM ssDNA primer FAM-18G, 10 mM Mg(OAc)2, 1x TdT buffer (100 mM KCl, 30 mM Tris-acetate, 0.05% Triton X-100), pH 7.5, 37°C
From the text: (§1) steady-state primer extension, denaturing PAGE, Michaelis-Menten fit on murine TdT

[2] = substrate: CO[C@@H]1[C@H](O)[C@@H](COP(=O)(O)OP(=O)(O)OP(=O)(O)O)O[C@H]1n1cnc2c(=O)[nH]c(N)nc21; assay: as above; assay type: biochemical, Mus musculus; settings: 100 nM ssDNA primer FAM-18G, 10 mM Mg(OAc)2, 1x TdT buffer (100 mM KCl, 30 mM Tris-acetate, 0.05% Triton X-100), pH 7.5, 37°C
From the text: as §1

[3] = substrate: Nc1ncnc2c1ncn2[C@H]1C[C@H](O)[C@@H](COP(=O)(O)OP(=O)(O)OP(=O)(O)O)O1; assay: as above; assay type: biochemical, Mus musculus; settings: 100 nM ssDNA primer FAM-18G, 10 mM Mg(OAc)2, 1x TdT buffer (100 mM KCl, 30 mM Tris-acetate, 0.05% Triton X-100), pH 7.5, 37°C
From the text: as §1

[4] = substrate: Nc1nc2c(ncn2[C@@H]2O[C@H](COP(=O)(O)OP(=O)(O)OP(=O)(O)O)[C@@H](O)[C@@H]2F)c(=O)[nH]1; assay: as above; assay type: biochemical, Mus musculus; settings: 100 nM ssDNA primer FAM-18G, 10 mM Mg(OAc)2, 1x TdT buffer (100 mM KCl, 30 mM Tris-acetate, 0.05% Triton X-100), pH 7.5, 37°C
From the text: as §1

[5] = substrate: Nc1ccn([C@H]2C[C@H](O)[C@@H](COP(=O)(O)OP(=O)(O)OP(=O)(O)O)O2)c(=O)n1; assay: as above; assay type: biochemical, Mus musculus; settings: 100 nM ssDNA primer FAM-18G, 10 mM Mg(OAc)2, 1x TdT buffer (100 mM KCl, 30 mM Tris-acetate, 0.05% Triton X-100), pH 7.5, 37°C
From the text: as §1

[6] = substrate: Nc1nc2c(ncn2[C@@H]2O[C@H](COP(=O)(O)OP(=O)(O)OP(=O)(O)O)[C@@H](O)[C@H]2F)c(=O)[nH]1; assay: as above; assay type: biochemical, Mus musculus; settings: 100 nM ssDNA primer FAM-18G, 10 mM Mg(OAc)2, 1x TdT buffer (100 mM KCl, 30 mM Tris-acetate, 0.05% Triton X-100), pH 7.5, 37°C
From the text: as §1

[7] = substrate: Nc1ccn([C@@H]2O[C@H](COP(=O)(O)OP(=O)(O)OP(=O)(O)O)[C@@H](O)[C@@H]2F)c(=O)n1; assay: as above; assay type: biochemical, Mus musculus; settings: 100 nM ssDNA primer FAM-18G, 10 mM Mg(OAc)2, 1x TdT buffer (100 mM KCl, 30 mM Tris-acetate, 0.05% Triton X-100), pH 7.5, 37°C
From the text: as §1

[8] = substrate: O=c1ccn([C@@H]2O[C@H](COP(=O)(O)OP(=O)(O)OP(=O)(O)O)[C@@H](O)[C@H]2F)c(=O)[nH]1; assay: as above; assay type: biochemical, Mus musculus; settings: 100 nM ssDNA primer FAM-18G, 10 mM Mg(OAc)2, 1x TdT buffer (100 mM KCl, 30 mM Tris-acetate, 0.05% Triton X-100), pH 7.5, 37°C
From the text: as §1

[9] = substrate: Nc1ncnc2c1ncn2[C@@H]1O[C@H](COP(=O)(O)OP(=O)(O)OP(=O)(O)O)[C@@H](O)[C@@H]1F; assay: purified protein, by the assay type
Description: (§2) The steady-state kinetic experiments were performed as described previously with minor modifications ([61]). A 2× reaction solution was prepared by mixing 200 nM primer FAM-18G, 0–128 μM 2′-modified NTP and 20 mM Mg(OAc)2 in 2× TdT buffer. A 5 μl aliquot of pre-warmed 2× reaction solution was mixed with 5 μl of bovine TdT, MTdT-evo or murine TdT of varying concentration, and incubated at 37°C for a certain time. The reaction was then quenched by the addition of 10 μl of 2× TBE-urea sample buffer and incubation at 95°C for 10 min. The products were analysed with 20% denaturing PAGE gels containing 8 M urea. All gel bands were quantified using Quantity One analysis software (Bio-Rad). Km and kcat values were calculated by fitting the data to the Michaelis–Menten equation with GraphPad Prism 8 software. To quantify the activities of different TdTs for the incorporation of 2′-modified NTPs, steady-state kinetic experiments were carried out.

[10] = substrate: O=c1ccn([C@@H]2O[C@H](COP(=O)(O)OP(=O)(O)OP(=O)(O)O)[C@@H](O)[C@@H]2F)c(=O)[nH]1; assay: purified protein, by the assay type
Description: as §2

[11] = substrate: Nc1ncnc2c1ncn2[C@@H]1O[C@H](COP(=O)(O)OP(=O)(O)OP(=O)(O)O)[C@@H](O)[C@H]1F; assay: purified protein, by the assay type
Description: as §2

[12] = substrate: CO[C@@H]1[C@H](O)[C@@H](COP(=O)(O)OP(=O)(O)OP(=O)(O)O)O[C@H]1n1ccc(N)nc1=O; assay: purified protein, by the assay type
Description: as §2

B1: murine TdT (Mus musculus) (protein)
chain: MDPLQAVHLGPRKKRPRQLGTPVASTPYDIRFRDLVLFILEKKMGTTRRAFLMELARRKGFRVENELSDSVTHIVAENNSGSDVLEWLQLQNIKASSELELLDISWLIECMGAGKPVEMMGRHQLVVNRNSSPSPVPGSQNVPAPAVKKISQYACQRRTTLNNYNQLFTDALDILAENDELRENEGSCLAFMRASSVLKSLPFPITSMKDTEGIPCLGDKVKSIIEGIIEDGESSEAKAVLNDERYKSFKLFTSVFGVGLKTAEKWFRMGFRTLSKIQSDKSLRFTQMQKAGFLYYEDLVSCVNRPEAEAVSMLVKEAVVTFLPDALVTMTGGFRRGKMTGHDVDFLITSPEATEDEEQQLLHKVTDFWKQQGLLLYCDILESTFEKFKQPSRKVDALDHFQKCFLILKLDHGRVHSEKSGQQEGKGWKAIRVDLVMCPYDRRAFALLGWTGSRQFERDLRRYATHERKMMLDNHALYDRTKRVFLEAESEEEIFAHLGLDYIEPWERNA
notes: recombinant, plasmid pET28a-murine TdT, E. coli BL21(DE3)
Km [1]: 1.00 ± 0.33 µM
kcat [1]: 0.0198 ± 0.00183 s⁻¹
kcat/Km [1]: 19800 M⁻¹ s⁻¹
Km [2]: 1.97 ± 0.14 µM
kcat [2]: 0.00217 ± 8.67e-05 s⁻¹
kcat/Km [2]: 1100 M⁻¹ s⁻¹
Km [3]: 2.53 ± 0.30 µM
kcat [3]: 0.0307 ± 0.00118 s⁻¹
kcat/Km [3]: 12100 M⁻¹ s⁻¹
Km [4]: 2.75 ± 0.23 µM
kcat [4]: 0.247 ± 0.007 s⁻¹
kcat/Km [4]: 90000 M⁻¹ s⁻¹
Km [5]: 1.37 ± 0.18 µM
kcat [5]: 0.058 ± 0.0055 s⁻¹
kcat/Km [5]: 42300 M⁻¹ s⁻¹
Km [6]: 2.59 ± 0.36 µM
kcat [6]: 0.0892 ± 0.0055 s⁻¹
kcat/Km [6]: 34500 M⁻¹ s⁻¹
Km [7]: 1.66 ± 0.71 µM
kcat [7]: 0.09 ± 0.00667 s⁻¹
kcat/Km [7]: 54200 M⁻¹ s⁻¹
Km [8]: 0.95 ± 0.31 µM
kcat [8]: 0.00617 ± 0.000567 s⁻¹
kcat/Km [8]: 6480 M⁻¹ s⁻¹
Km [9]: 3.98 ± 0.33 µM
kcat [9]: 0.204 ± 0.00283 s⁻¹
kcat/Km [9]: 51300 M⁻¹ s⁻¹
Km [10]: 2.36 ± 0.60 µM
kcat [10]: 0.06 ± 0.00433 s⁻¹
kcat/Km [10]: 25500 M⁻¹ s⁻¹
Km [11]: 0.62 ± 0.48 µM
kcat [11]: 0.023 ± 0.00108 s⁻¹
kcat/Km [11]: 37200 M⁻¹ s⁻¹
Km [12]: 5.1 ± 1.53 µM
kcat [12]: 0.00112 ± 8.67e-05 s⁻¹
kcat/Km [12]: 219 M⁻¹ s⁻¹
